One assay relates to M. pneumoniae. Put plainly: M. pneumoniae adhesion to immobilized glycoproteins adsorbed on plastic. Particulars: for M. pneumoniae adhesion to immobilized glycoprotein (in words): adsorbed on plastic; for Relative binding activity: relative to fetuin = 1.0, from amount for half maximal binding, mean of 2 or 3 experiments. In kind it is binding, Mycoplasma pneumoniae strain M129. The method, then: Glycoproteins dissolved in 0.01 M sodium phosphate buffer, pH 7.4, containing 150 mM NaCl, 1 mM CaCl2, and 0.01% NaN3 were adsorbed onto plastic polyvinylchloride […] microtiter plates by incubation for 16 hours at 4° C. The unbound proteins were removed, and the wells were filled with tris-BSA and incubated for 30 minutes at room temperature. The wells were rinsed with RPMI1640 containing 25 mM HEPES, pH 7.3, and 1% bovine serum albumin. M. pneumoniae strain M129 labelled with [^3 H]-palmitate were dispersed in RPMI-BSA by passing four times through a 26 gauge needle, and 50 μl of the suspension was applied to the wells. After incubation for 60 minutes at 37° C., the wells were washed five times with saline and the labelled M. pneumoniae bound to the proteins were quantified by scintillation counting in Aquasol. […]

In assay [1] the test system is erythrocyte adhesion to M. pneumoniae. To be noted: relative to fetuin; Loomes et al.; cited from earlier work.
Assay [2] deals with monoclonal antibody My-28. Put plainly: Binding of monoclonal antibody My-28 to immobilized proteins after neuraminidase. Particulars: neuraminidase-treated, adsorbed on plastic. The protocol:
Binding of monoclonal antibody My-28 to the immobilized proteins before or after digestion with neuraminidase was determined using a 1:1000 dilution of ascites fluid in tris-BSA. After incubation for two hours at room temperature, the wells were washed three times with tris-BSA. Bound antibody was detected using goat anti-mouse IgM labelled with ^125 I by the Iodogen method.

Take “Human α1 -acid glycoprotein: glycoprotein”: in the assay on M. pneumoniae, the “M. pneumoniae adhesion to immobilized glycoprotein (in words)” value (shortened to “M. pneumoniae adhesion”) is reported as “neither protein binds M. pneumoniae well” and the Relative binding activity is reported as 0.03. Besides, the “M. pneumoniae adhesion” value with M. pneumoniae (listed as alpha-1-acid glycoprotein) is reported as “weakly active”. For the same molecule, the “inhibition of erythrocyte adhesion to M. pneumoniae (in words)” value in assay [1] was “inhibit erythrocyte adhesion to M. pneumoniae better than fetuin”.

B1: Human type MM glycophorin: glycoprotein (protein, UniProt P02724 20-150, looked up)
Glycophorin-A: LSTTEVAMHTSTSSSVTKSYISSQTNDTHKRDTYAATPRAHEVSEISVRTVYPPEEETGERVQLAHHFSEPEITLIIFGVMAGVIGTILLISYGIRRLIKKSPSDVKPLPSPDTDVPLSSVEIENPETSDQ
modifications: MM blood type
notes: glycoprotein
As to B1, the “M. pneumoniae adhesion” value is reported as “weakly active” in the assay with M. pneumoniae (listed as Glycophorin) and “neither protein binds M. pneumoniae well” in the assay on M. pneumoniae (listed as glycophorin). The Relative binding activity in the assay with M. pneumoniae was determined as 0.06. In addition, the “My-28 antibody binding after neuraminidase digestion (in words)” value in assay [2] is listed as “about ten-fold less”. In assay [1], the “inhibition of erythrocyte adhesion to M. pneumoniae (in words)” value is on record as “inhibit erythrocyte adhesion to M. pneumoniae better than fetuin”.

The values above are taken from US5089479A, “Adhesion of Mycoplasma pneumoniae and Mycoplasma hominus to sulfatide” (priority 1988, dated 1992).
